# Measured values reported in patent publication US20140206609A1 (Sanofi, published 2014).
# Where two headings read alike, the source gives them in different places. *1 amine or outer side, *2 acyl side, *3 side chain or, on linkers, in order; H or OH if unused. Where no end group is shown, it is not given here. Side-chain parts run from the residue outwards. [ ]: non-standard residue; d: D form. The star is where a group is joined. γGlu = O=C(O)[C@H](CCC(=O)[*:2])N[*:1]; Palmitoyl = CCCCCCCCCCCCCCCC(=O)*; Nle = CCCC[C@H](N)C(=O)O; Aib = CC(C)(N)C(=O)O
# T1: human GIP receptor (human) (UniProt P48546)
# T1 sequence (looked up): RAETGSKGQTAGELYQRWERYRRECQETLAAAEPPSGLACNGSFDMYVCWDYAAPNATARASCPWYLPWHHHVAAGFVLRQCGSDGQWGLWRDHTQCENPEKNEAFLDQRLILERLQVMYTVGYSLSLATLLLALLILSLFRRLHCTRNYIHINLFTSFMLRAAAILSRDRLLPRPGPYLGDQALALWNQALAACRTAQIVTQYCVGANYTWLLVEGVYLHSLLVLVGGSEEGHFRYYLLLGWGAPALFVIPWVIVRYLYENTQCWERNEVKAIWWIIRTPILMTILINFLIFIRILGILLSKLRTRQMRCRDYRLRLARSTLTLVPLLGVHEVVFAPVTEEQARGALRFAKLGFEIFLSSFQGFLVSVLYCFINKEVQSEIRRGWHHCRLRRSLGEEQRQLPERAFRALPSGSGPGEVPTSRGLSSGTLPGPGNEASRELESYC
# T2: human GIP receptor (human, UniProt P48546 22-466)
# T2 sequence (looked up): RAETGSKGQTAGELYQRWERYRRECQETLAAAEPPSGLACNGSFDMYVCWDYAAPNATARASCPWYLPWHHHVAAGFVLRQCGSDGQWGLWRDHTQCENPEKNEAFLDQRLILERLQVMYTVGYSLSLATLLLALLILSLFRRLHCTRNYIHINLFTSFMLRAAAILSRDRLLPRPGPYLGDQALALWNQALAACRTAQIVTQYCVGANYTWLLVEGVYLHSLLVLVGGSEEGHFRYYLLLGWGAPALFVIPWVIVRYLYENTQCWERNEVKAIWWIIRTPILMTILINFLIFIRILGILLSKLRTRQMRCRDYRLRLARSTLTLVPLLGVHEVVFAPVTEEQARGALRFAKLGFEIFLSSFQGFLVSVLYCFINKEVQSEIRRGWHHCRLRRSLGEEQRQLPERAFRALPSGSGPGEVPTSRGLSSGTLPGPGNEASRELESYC
# What was measured:
# Assay in all cases: cell-based or functional assay
# [1] = target: human GLP-1 receptor (human) (UniProt P43220)
# [2] = target: T1, human GIP receptor (human)
# [3] = target: T3, human GLP-1 receptor (human, UniProt P43220 24-463)
# Target sequence in this assay (P43220 24-463): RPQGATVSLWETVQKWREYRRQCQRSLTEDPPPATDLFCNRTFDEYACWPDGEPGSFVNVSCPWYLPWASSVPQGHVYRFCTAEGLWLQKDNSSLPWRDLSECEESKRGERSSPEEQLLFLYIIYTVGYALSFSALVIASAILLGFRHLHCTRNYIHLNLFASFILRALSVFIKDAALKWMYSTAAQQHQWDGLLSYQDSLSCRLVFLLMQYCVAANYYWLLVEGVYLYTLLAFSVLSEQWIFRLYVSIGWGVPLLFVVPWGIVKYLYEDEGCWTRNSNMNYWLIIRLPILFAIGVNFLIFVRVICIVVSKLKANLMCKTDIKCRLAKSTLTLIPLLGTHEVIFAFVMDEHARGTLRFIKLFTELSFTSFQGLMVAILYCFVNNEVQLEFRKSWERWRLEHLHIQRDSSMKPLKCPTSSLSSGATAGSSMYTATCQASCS
# [4] = target: T2, human GIP receptor
# [5] = target: T3, human GLP-1 receptor; remark: listed apart in the source
# [6] = target: T2, human GIP receptor; remark: listed apart in the source
# [7] = target: human glucagon receptor (human, UniProt P47871 26-477)
# [8] = target: T3, human GLP-1 receptor; remark: listed apart in the source
# [9] = target: T2, human GIP receptor; remark: listed apart in the source
# Chain of human glucagon receptor (P47871 26-477): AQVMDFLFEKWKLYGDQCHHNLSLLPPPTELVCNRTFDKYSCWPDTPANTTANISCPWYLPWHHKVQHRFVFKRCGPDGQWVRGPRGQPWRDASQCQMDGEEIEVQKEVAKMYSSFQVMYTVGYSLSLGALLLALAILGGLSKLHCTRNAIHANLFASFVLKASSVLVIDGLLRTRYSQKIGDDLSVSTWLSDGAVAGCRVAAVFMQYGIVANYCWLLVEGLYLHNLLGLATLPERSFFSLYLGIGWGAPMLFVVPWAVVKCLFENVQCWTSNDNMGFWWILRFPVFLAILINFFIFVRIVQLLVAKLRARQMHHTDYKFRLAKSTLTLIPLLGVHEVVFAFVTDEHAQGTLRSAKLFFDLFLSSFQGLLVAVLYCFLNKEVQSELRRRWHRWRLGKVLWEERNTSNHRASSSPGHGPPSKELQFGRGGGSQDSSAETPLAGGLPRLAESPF
# Chain of human GLP-1 receptor (human) (P43220 24-463): as the sequence (P43220 24-463) above
molecule,measurement,setting,value
Tyr(1)Ile(12)-exendin-4 (peptide),EC50 hGLP-1 R [pM],[1],1.3 pM
same,EC50 hGIP R [pM],[2],93.9 pM
Tyr(1)Ile(12)-GLP1 (peptide),EC50 hGLP-1 R [pM],[3],5 pM
same,EC50 hGIP R [pM],[4],3660 pM
natural GIP (glucose-dependent insulinotropic polypeptide) (from UniProt P09681 52-93) (ligand),EC50,[2],0.4 pM
Y[Aib]EGTFTSDLSIQK([γGlu-Palmitoyl])EKRAA[Aib]EFIEWLKNTGPSSGAPPPS-NH2 (N-terminus assumed; SMILES CCCCCCCCCCCCCCCC(=O)N[C@@H](CCC(=O)NCCCC[C@H](NC(=O)[C@H](CCC(N)=O)NC(=O)[C@@H](NC(=O)[C@H](CO)NC(=O)[C@H](CC(C)C)NC(=O)[C@H](CC(=O)O)NC(=O)[C@H](CO)NC(=O)[C@@H](NC(=O)[C@H](Cc1ccccc1)NC(=O)[C@@H](NC(=O)CNC(=O)[C@H](CCC(=O)O)NC(=O)C(C)(C)NC(=O)[C@@H](N)Cc1ccc(O)cc1)[C@@H](C)O)[C@@H](C)O)[C@@H](C)CC)C(=O)N[C@@H](CCC(=O)O)C(=O)N[C@@H](CCCCN)C(=O)N[C@@H](CCCNC(=N)N)C(=O)N[C@@H](C)C(=O)N[C@@H](C)C(=O)NC(C)(C)C(=O)N[C@@H](CCC(=O)O)C(=O)N[C@@H](Cc1ccccc1)C(=O)N[C@H](C(=O)N[C@@H](CCC(=O)O)C(=O)N[C@@H](Cc1c[nH]c2ccccc12)C(=O)N[C@@H](CC(C)C)C(=O)N[C@@H](CCCCN)C(=O)N[C@@H](CC(N)=O)C(=O)N[C@H](C(=O)NCC(=O)N1CCC[C@H]1C(=O)N[C@@H](CO)C(=O)N[C@@H](CO)C(=O)NCC(=O)N[C@@H](C)C(=O)N1CCC[C@H]1C(=O)N1CCC[C@H]1C(=O)N1CCC[C@H]1C(=O)N[C@@H](CO)C(N)=O)[C@@H](C)O)[C@@H](C)CC)C(=O)O) [SEQ ID NO: 9],EC50 hGLP-1 R [pM],[5],3.6 pM
same,EC50 hGIP R [pM],[6],5.7 pM
same,EC50 hGLUC R [pM],[7],7710 pM
same,EC50 hGLP-1 R [pM],[8],3.6 pM
same,EC50 hGIP R [pM],[9],5.7 pM
Y[Aib]QGTFTSDLSIQLESRAAQDFIEWLKAGGPSSGAPPPS-NH2 (N-terminus assumed; SMILES CC[C@H](C)[C@H](NC(=O)[C@H](Cc1ccccc1)NC(=O)[C@H](CC(=O)O)NC(=O)[C@H](CCC(N)=O)NC(=O)[C@H](C)NC(=O)[C@H](C)NC(=O)[C@H](CCCNC(=N)N)NC(=O)[C@H](CO)NC(=O)[C@H](CCC(=O)O)NC(=O)[C@H](CC(C)C)NC(=O)[C@H](CCC(N)=O)NC(=O)[C@@H](NC(=O)[C@H](CO)NC(=O)[C@H](CC(C)C)NC(=O)[C@H](CC(=O)O)NC(=O)[C@H](CO)NC(=O)[C@@H](NC(=O)[C@H](Cc1ccccc1)NC(=O)[C@@H](NC(=O)CNC(=O)[C@H](CCC(N)=O)NC(=O)C(C)(C)NC(=O)[C@@H](N)Cc1ccc(O)cc1)[C@@H](C)O)[C@@H](C)O)[C@@H](C)CC)C(=O)N[C@@H](CCC(=O)O)C(=O)N[C@@H](Cc1c[nH]c2ccccc12)C(=O)N[C@@H](CC(C)C)C(=O)N[C@@H](CCCCN)C(=O)N[C@@H](C)C(=O)NCC(=O)NCC(=O)N1CCC[C@H]1C(=O)N[C@@H](CO)C(=O)N[C@@H](CO)C(=O)NCC(=O)N[C@@H](C)C(=O)N1CCC[C@H]1C(=O)N1CCC[C@H]1C(=O)N1CCC[C@H]1C(=O)N[C@@H](CO)C(N)=O) [SEQ ID NO: 40],EC50 hGLP-1 R [pM],[8],3.2 pM
same,EC50 hGIP R [pM],[9],858 pM
Y[Aib]QGTFTSDLSIQK([γGlu-Palmitoyl])ESRAAQDFIEWLKAGGPSSGAPPPS-NH2 (N-terminus assumed; SMILES CCCCCCCCCCCCCCCC(=O)N[C@@H](CCC(=O)NCCCC[C@H](NC(=O)[C@H](CCC(N)=O)NC(=O)[C@@H](NC(=O)[C@H](CO)NC(=O)[C@H](CC(C)C)NC(=O)[C@H](CC(=O)O)NC(=O)[C@H](CO)NC(=O)[C@@H](NC(=O)[C@H](Cc1ccccc1)NC(=O)[C@@H](NC(=O)CNC(=O)[C@H](CCC(N)=O)NC(=O)C(C)(C)NC(=O)[C@@H](N)Cc1ccc(O)cc1)[C@@H](C)O)[C@@H](C)O)[C@@H](C)CC)C(=O)N[C@@H](CCC(=O)O)C(=O)N[C@@H](CO)C(=O)N[C@@H](CCCNC(=N)N)C(=O)N[C@@H](C)C(=O)N[C@@H](C)C(=O)N[C@@H](CCC(N)=O)C(=O)N[C@@H](CC(=O)O)C(=O)N[C@@H](Cc1ccccc1)C(=O)N[C@H](C(=O)N[C@@H](CCC(=O)O)C(=O)N[C@@H](Cc1c[nH]c2ccccc12)C(=O)N[C@@H](CC(C)C)C(=O)N[C@@H](CCCCN)C(=O)N[C@@H](C)C(=O)NCC(=O)NCC(=O)N1CCC[C@H]1C(=O)N[C@@H](CO)C(=O)N[C@@H](CO)C(=O)NCC(=O)N[C@@H](C)C(=O)N1CCC[C@H]1C(=O)N1CCC[C@H]1C(=O)N1CCC[C@H]1C(=O)N[C@@H](CO)C(N)=O)[C@@H](C)CC)C(=O)O) [SEQ ID NO: 32],EC50 hGLP-1 R [pM],[5],8.4 pM
same,EC50 hGIP R [pM],[6],7.1 pM
same,EC50 hGLUC R [pM],[7],82.6 pM
same,EC50 hGLP-1 R [pM],[8],8.4 pM
same,EC50 hGIP R [pM],[9],7.1 pM
Y[Aib]EGTFTSDLSIQ[Nle]EKRAA[Aib]EFIEWLKNTGPSSGAPPPS-NH2 (N-terminus assumed; SMILES CCCC[C@H](NC(=O)[C@H](CCC(N)=O)NC(=O)[C@@H](NC(=O)[C@H](CO)NC(=O)[C@H](CC(C)C)NC(=O)[C@H](CC(=O)O)NC(=O)[C@H](CO)NC(=O)[C@@H](NC(=O)[C@H](Cc1ccccc1)NC(=O)[C@@H](NC(=O)CNC(=O)[C@H](CCC(=O)O)NC(=O)C(C)(C)NC(=O)[C@@H](N)Cc1ccc(O)cc1)[C@@H](C)O)[C@@H](C)O)[C@@H](C)CC)C(=O)N[C@@H](CCC(=O)O)C(=O)N[C@@H](CCCCN)C(=O)N[C@@H](CCCNC(=N)N)C(=O)N[C@@H](C)C(=O)N[C@@H](C)C(=O)NC(C)(C)C(=O)N[C@@H](CCC(=O)O)C(=O)N[C@@H](Cc1ccccc1)C(=O)N[C@H](C(=O)N[C@@H](CCC(=O)O)C(=O)N[C@@H](Cc1c[nH]c2ccccc12)C(=O)N[C@@H](CC(C)C)C(=O)N[C@@H](CCCCN)C(=O)N[C@@H](CC(N)=O)C(=O)N[C@H](C(=O)NCC(=O)N1CCC[C@H]1C(=O)N[C@@H](CO)C(=O)N[C@@H](CO)C(=O)NCC(=O)N[C@@H](C)C(=O)N1CCC[C@H]1C(=O)N1CCC[C@H]1C(=O)N1CCC[C@H]1C(=O)N[C@@H](CO)C(N)=O)[C@@H](C)O)[C@@H](C)CC) [SEQ ID NO: 41],EC50 hGLP-1 R [pM],[8],11.2 pM
same,EC50 hGIP R [pM],[9],449 pM
